# According to article PMC3393671:
# Biological target: ROP5 of T. gondii strain RH-YFP (isoforms not told apart), F2YGR7
# Experiment: pull-down (quantitated Western blot)
# Conditions: chain shown with the change; 25 µg protein/100 µl 1:1 bead suspension; RH-YFP strain T. gondii lysates; 3E2 antibody (anti-ROP5); GST signal subtracted; parent: est. 100; read off a plot
# Chain of ROP5 of T. gondii strain RH-YFP (isoforms not told apart), F2YGR7 (F2YGR7 25-549): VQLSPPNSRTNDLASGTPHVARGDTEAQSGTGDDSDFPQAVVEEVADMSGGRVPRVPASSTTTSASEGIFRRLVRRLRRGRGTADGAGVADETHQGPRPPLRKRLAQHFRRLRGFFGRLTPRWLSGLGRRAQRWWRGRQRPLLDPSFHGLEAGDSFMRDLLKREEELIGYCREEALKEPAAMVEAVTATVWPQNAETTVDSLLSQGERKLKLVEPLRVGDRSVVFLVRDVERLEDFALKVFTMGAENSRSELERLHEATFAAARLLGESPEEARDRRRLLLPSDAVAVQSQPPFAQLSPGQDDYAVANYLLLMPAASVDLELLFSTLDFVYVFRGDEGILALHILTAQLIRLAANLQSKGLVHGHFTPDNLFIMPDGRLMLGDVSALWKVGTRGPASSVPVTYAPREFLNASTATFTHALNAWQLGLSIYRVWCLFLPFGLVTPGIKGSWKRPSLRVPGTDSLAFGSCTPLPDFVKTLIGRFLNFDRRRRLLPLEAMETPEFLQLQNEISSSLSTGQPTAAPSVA
row,Binder,percent of parent (% of wild-type intensity)
1,"GST-Irga6, Q9QZ85 E110R; R111E (protein) MGQLFSSPKSDENNDLPSSFTGYFKKFNTGRKIISQEILNLIELRMRKGNIQLTNSAISDALKEIDSSVLNVAVTGETGSGKSSFINTLRGIGNEEEGAAKTGVVEVTMREHPYKHPNIPNVVFWDLPGIGSTNFPPNTYLEKMKFYEYDFFIIISATRFKKNDIDIAKAISMMKKEFYFVRTKVDSDITNEADGKPQTFDKEKVLQDIRLNCVNTFRENGIAEPPIFLLSNKNVCHYDFPVLMDKLISDLPIYKRHNFMVSLPNITDSVIEKKRQFLKQRIWLEGFAADLVNIIPSLTFLLDSDLETLKKSMKFYRTVFGVDETSLQRLARDWEIEVDQVEAMIKSPAVFKPTDEETIQERLSRYIQEFCLANGYLLPKNSFLKEIFYLKYYFLDMVTEDAKTLLKEICL",17
2,"GST-Irga6, Q9QZ85 K162E (protein) MGQLFSSPKSDENNDLPSSFTGYFKKFNTGRKIISQEILNLIELRMRKGNIQLTNSAISDALKEIDSSVLNVAVTGETGSGKSSFINTLRGIGNEEEGAAKTGVVEVTMERHPYKHPNIPNVVFWDLPGIGSTNFPPNTYLEKMKFYEYDFFIIISATRFKENDIDIAKAISMMKKEFYFVRTKVDSDITNEADGKPQTFDKEKVLQDIRLNCVNTFRENGIAEPPIFLLSNKNVCHYDFPVLMDKLISDLPIYKRHNFMVSLPNITDSVIEKKRQFLKQRIWLEGFAADLVNIIPSLTFLLDSDLETLKKSMKFYRTVFGVDETSLQRLARDWEIEVDQVEAMIKSPAVFKPTDEETIQERLSRYIQEFCLANGYLLPKNSFLKEIFYLKYYFLDMVTEDAKTLLKEICL",3.5
3,"GST-Irga6, Q9QZ85 R159E (protein) MGQLFSSPKSDENNDLPSSFTGYFKKFNTGRKIISQEILNLIELRMRKGNIQLTNSAISDALKEIDSSVLNVAVTGETGSGKSSFINTLRGIGNEEEGAAKTGVVEVTMERHPYKHPNIPNVVFWDLPGIGSTNFPPNTYLEKMKFYEYDFFIIISATEFKKNDIDIAKAISMMKKEFYFVRTKVDSDITNEADGKPQTFDKEKVLQDIRLNCVNTFRENGIAEPPIFLLSNKNVCHYDFPVLMDKLISDLPIYKRHNFMVSLPNITDSVIEKKRQFLKQRIWLEGFAADLVNIIPSLTFLLDSDLETLKKSMKFYRTVFGVDETSLQRLARDWEIEVDQVEAMIKSPAVFKPTDEETIQERLSRYIQEFCLANGYLLPKNSFLKEIFYLKYYFLDMVTEDAKTLLKEICL",5.5
4,"GST-Irga6, Q9QZ85 K161E (protein) MGQLFSSPKSDENNDLPSSFTGYFKKFNTGRKIISQEILNLIELRMRKGNIQLTNSAISDALKEIDSSVLNVAVTGETGSGKSSFINTLRGIGNEEEGAAKTGVVEVTMERHPYKHPNIPNVVFWDLPGIGSTNFPPNTYLEKMKFYEYDFFIIISATRFEKNDIDIAKAISMMKKEFYFVRTKVDSDITNEADGKPQTFDKEKVLQDIRLNCVNTFRENGIAEPPIFLLSNKNVCHYDFPVLMDKLISDLPIYKRHNFMVSLPNITDSVIEKKRQFLKQRIWLEGFAADLVNIIPSLTFLLDSDLETLKKSMKFYRTVFGVDETSLQRLARDWEIEVDQVEAMIKSPAVFKPTDEETIQERLSRYIQEFCLANGYLLPKNSFLKEIFYLKYYFLDMVTEDAKTLLKEICL",1
5,"GST-Irga6, Q9QZ85 E106R (protein) MGQLFSSPKSDENNDLPSSFTGYFKKFNTGRKIISQEILNLIELRMRKGNIQLTNSAISDALKEIDSSVLNVAVTGETGSGKSSFINTLRGIGNEEEGAAKTGVVRVTMERHPYKHPNIPNVVFWDLPGIGSTNFPPNTYLEKMKFYEYDFFIIISATRFKKNDIDIAKAISMMKKEFYFVRTKVDSDITNEADGKPQTFDKEKVLQDIRLNCVNTFRENGIAEPPIFLLSNKNVCHYDFPVLMDKLISDLPIYKRHNFMVSLPNITDSVIEKKRQFLKQRIWLEGFAADLVNIIPSLTFLLDSDLETLKKSMKFYRTVFGVDETSLQRLARDWEIEVDQVEAMIKSPAVFKPTDEETIQERLSRYIQEFCLANGYLLPKNSFLKEIFYLKYYFLDMVTEDAKTLLKEICL",110
6,"GST-Irga6, Q9QZ85 S132R (protein) MGQLFSSPKSDENNDLPSSFTGYFKKFNTGRKIISQEILNLIELRMRKGNIQLTNSAISDALKEIDSSVLNVAVTGETGSGKSSFINTLRGIGNEEEGAAKTGVVEVTMERHPYKHPNIPNVVFWDLPGIGRTNFPPNTYLEKMKFYEYDFFIIISATRFKKNDIDIAKAISMMKKEFYFVRTKVDSDITNEADGKPQTFDKEKVLQDIRLNCVNTFRENGIAEPPIFLLSNKNVCHYDFPVLMDKLISDLPIYKRHNFMVSLPNITDSVIEKKRQFLKQRIWLEGFAADLVNIIPSLTFLLDSDLETLKKSMKFYRTVFGVDETSLQRLARDWEIEVDQVEAMIKSPAVFKPTDEETIQERLSRYIQEFCLANGYLLPKNSFLKEIFYLKYYFLDMVTEDAKTLLKEICL",45
7,"GST-Irga6, Q9QZ85 E77A (protein) MGQLFSSPKSDENNDLPSSFTGYFKKFNTGRKIISQEILNLIELRMRKGNIQLTNSAISDALKEIDSSVLNVAVTGATGSGKSSFINTLRGIGNEEEGAAKTGVVEVTMERHPYKHPNIPNVVFWDLPGIGSTNFPPNTYLEKMKFYEYDFFIIISATRFKKNDIDIAKAISMMKKEFYFVRTKVDSDITNEADGKPQTFDKEKVLQDIRLNCVNTFRENGIAEPPIFLLSNKNVCHYDFPVLMDKLISDLPIYKRHNFMVSLPNITDSVIEKKRQFLKQRIWLEGFAADLVNIIPSLTFLLDSDLETLKKSMKFYRTVFGVDETSLQRLARDWEIEVDQVEAMIKSPAVFKPTDEETIQERLSRYIQEFCLANGYLLPKNSFLKEIFYLKYYFLDMVTEDAKTLLKEICL",34
8,"GST-Irga6, Q9QZ85 I209R (protein) MGQLFSSPKSDENNDLPSSFTGYFKKFNTGRKIISQEILNLIELRMRKGNIQLTNSAISDALKEIDSSVLNVAVTGETGSGKSSFINTLRGIGNEEEGAAKTGVVEVTMERHPYKHPNIPNVVFWDLPGIGSTNFPPNTYLEKMKFYEYDFFIIISATRFKKNDIDIAKAISMMKKEFYFVRTKVDSDITNEADGKPQTFDKEKVLQDRRLNCVNTFRENGIAEPPIFLLSNKNVCHYDFPVLMDKLISDLPIYKRHNFMVSLPNITDSVIEKKRQFLKQRIWLEGFAADLVNIIPSLTFLLDSDLETLKKSMKFYRTVFGVDETSLQRLARDWEIEVDQVEAMIKSPAVFKPTDEETIQERLSRYIQEFCLANGYLLPKNSFLKEIFYLKYYFLDMVTEDAKTLLKEICL",5
9,"GST-Irga6, Q9QZ85 N212R (protein) MGQLFSSPKSDENNDLPSSFTGYFKKFNTGRKIISQEILNLIELRMRKGNIQLTNSAISDALKEIDSSVLNVAVTGETGSGKSSFINTLRGIGNEEEGAAKTGVVEVTMERHPYKHPNIPNVVFWDLPGIGSTNFPPNTYLEKMKFYEYDFFIIISATRFKKNDIDIAKAISMMKKEFYFVRTKVDSDITNEADGKPQTFDKEKVLQDIRLRCVNTFRENGIAEPPIFLLSNKNVCHYDFPVLMDKLISDLPIYKRHNFMVSLPNITDSVIEKKRQFLKQRIWLEGFAADLVNIIPSLTFLLDSDLETLKKSMKFYRTVFGVDETSLQRLARDWEIEVDQVEAMIKSPAVFKPTDEETIQERLSRYIQEFCLANGYLLPKNSFLKEIFYLKYYFLDMVTEDAKTLLKEICL",2.7
10,"GST-Irga6, Q9QZ85 M173W (protein) MGQLFSSPKSDENNDLPSSFTGYFKKFNTGRKIISQEILNLIELRMRKGNIQLTNSAISDALKEIDSSVLNVAVTGETGSGKSSFINTLRGIGNEEEGAAKTGVVEVTMERHPYKHPNIPNVVFWDLPGIGSTNFPPNTYLEKMKFYEYDFFIIISATRFKKNDIDIAKAISWMKKEFYFVRTKVDSDITNEADGKPQTFDKEKVLQDIRLNCVNTFRENGIAEPPIFLLSNKNVCHYDFPVLMDKLISDLPIYKRHNFMVSLPNITDSVIEKKRQFLKQRIWLEGFAADLVNIIPSLTFLLDSDLETLKKSMKFYRTVFGVDETSLQRLARDWEIEVDQVEAMIKSPAVFKPTDEETIQERLSRYIQEFCLANGYLLPKNSFLKEIFYLKYYFLDMVTEDAKTLLKEICL",25
11,"GST-Irga6, Q9QZ85 T88R (protein) MGQLFSSPKSDENNDLPSSFTGYFKKFNTGRKIISQEILNLIELRMRKGNIQLTNSAISDALKEIDSSVLNVAVTGETGSGKSSFINRLRGIGNEEEGAAKTGVVEVTMERHPYKHPNIPNVVFWDLPGIGSTNFPPNTYLEKMKFYEYDFFIIISATRFKKNDIDIAKAISMMKKEFYFVRTKVDSDITNEADGKPQTFDKEKVLQDIRLNCVNTFRENGIAEPPIFLLSNKNVCHYDFPVLMDKLISDLPIYKRHNFMVSLPNITDSVIEKKRQFLKQRIWLEGFAADLVNIIPSLTFLLDSDLETLKKSMKFYRTVFGVDETSLQRLARDWEIEVDQVEAMIKSPAVFKPTDEETIQERLSRYIQEFCLANGYLLPKNSFLKEIFYLKYYFLDMVTEDAKTLLKEICL",51
12,"GST-Irga6, Q9QZ85 P197H (protein) MGQLFSSPKSDENNDLPSSFTGYFKKFNTGRKIISQEILNLIELRMRKGNIQLTNSAISDALKEIDSSVLNVAVTGETGSGKSSFINTLRGIGNEEEGAAKTGVVEVTMERHPYKHPNIPNVVFWDLPGIGSTNFPPNTYLEKMKFYEYDFFIIISATRFKKNDIDIAKAISMMKKEFYFVRTKVDSDITNEADGKHQTFDKEKVLQDIRLNCVNTFRENGIAEPPIFLLSNKNVCHYDFPVLMDKLISDLPIYKRHNFMVSLPNITDSVIEKKRQFLKQRIWLEGFAADLVNIIPSLTFLLDSDLETLKKSMKFYRTVFGVDETSLQRLARDWEIEVDQVEAMIKSPAVFKPTDEETIQERLSRYIQEFCLANGYLLPKNSFLKEIFYLKYYFLDMVTEDAKTLLKEICL",2.8
13,"GST-Irga6, Q9QZ85 K145E (protein) MGQLFSSPKSDENNDLPSSFTGYFKKFNTGRKIISQEILNLIELRMRKGNIQLTNSAISDALKEIDSSVLNVAVTGETGSGKSSFINTLRGIGNEEEGAAKTGVVEVTMERHPYKHPNIPNVVFWDLPGIGSTNFPPNTYLEKMEFYEYDFFIIISATRFKKNDIDIAKAISMMKKEFYFVRTKVDSDITNEADGKPQTFDKEKVLQDIRLNCVNTFRENGIAEPPIFLLSNKNVCHYDFPVLMDKLISDLPIYKRHNFMVSLPNITDSVIEKKRQFLKQRIWLEGFAADLVNIIPSLTFLLDSDLETLKKSMKFYRTVFGVDETSLQRLARDWEIEVDQVEAMIKSPAVFKPTDEETIQERLSRYIQEFCLANGYLLPKNSFLKEIFYLKYYFLDMVTEDAKTLLKEICL",100
